Data as given in the DeepSol protein solubility set.

assay: soluble on expression in E. coli; label from the status in PepcDB or PDB records

Sequence | soluble on expression in E. coli
SSPATPVPPDSILESPFEEMALVRGGWLWRQSSILRRWKRNWFALWLDGTLGYYHDETAQDEEDRVVIHFNVRDIKVGQECQDVQPPEGRSRDGLLTVNLREGSRLHLCAETRDDAIAWKTALMEANSTPAPAGATVPPRSRRVCPKVRCTTLSWNPCKVERRIWVRVYSPYQDYYEVVPPNAHEATYVRSYYGPPYAGPGVTHVIVREDPCYSSGAPLAMGMLAGAATGAALGSLMWSPCWF | not soluble
MAHHHHHHMERFRSEDVAEGAFTLNLDECGASLIELHAPLNGLAFMMQDAVVAQLAMGSTLAGSDAAKAPQDDHDGTTVNFRTLSTSAAGAIDALLSEMSARRVHFVSGVVTDAMLDVEGVTIIDPLPLEPRLNRFQRNMIRLSLTLEQQFFLLAEYLGNTSGGCAHGVIGSGEAAALAVDVWRVAGFCDALVDHLWWRGRCVCGGPFSWRCRWDCAARGVARRCARACRVLGVFTPAR | not soluble
SEKMSRPLPLNPTFIPPPYGVLRSLLENPLKLPLHHEDAFSKDKDKEKKLDDESNSPTVPQSAFLGPTLWDKTLPYDGDTFQLEYMDLEEFLSENGIPPSPSQHDHSPHPPGLQPASSAAPSVMDLSSRASAPLHPGIPSPNCMQSPIRPGQLLPANRNTPSPIDPDTIQVPVGYEPDPADLALSSIPGQEMFDPRKRKFSEEELKPQPMIKKARKVFIPDDLKDDKYWARRRKNNMAAKRSRDARRLKENQIAIRASFLEKENSALRQEVADLRKELGKCKNILAKYEARHGPL | soluble
MNNHSNKHWHLQMYLPEGKKGVQIRSEDMLKEPQPVIGTGEWNNRQCQDFKELHIGTIILVREGKKAIALCEVTSGCYTDKELHEKYRHSNFRNVKVLDFIAEKDQPPPRLFSQGTLKSCGEWTHQWEYIDKLISLMDKNNPIEEYSQLKEYAQLLESKKNIILQGAPGTGKTYTTASIAVHMCNKNFTDYTDHSKVIEEYERLRDTGQIAFCTFHQSMDYEDFVEGLKPEVKSNNVEYNVENGIFKSICEQAKTKEEADIITCIDKYLQSIKGYENKKKIPTISGRSDLWVWWIEGNDTISTRSAISKSEKGEQYSLSPLNIEKVKLQAIGEAIENNWRQYAQAFINAVKKEYQLDKQISDKPYVLIIDEINRGNVSKIFGELITLLEADKRSGAGSDSNHCISLILPYSKENFSVPSNLYIIGTMNTTDRSTGTIDYAVRRRFAFVTLKSSDKVIKEYAEKQSVEDNVRDASLALFTQINGNLKNDKESFIAKHKAADFELEDLKVGHSYFMAKDIDMLKMKMRYEVVPLIKEYIKDGILRGMQGDESYFEKWMNAECFHQSEPTTNDN | not soluble
SGRVQLFEISLSHGRVVYSPGEPLAGTVRVRLGAPLPFRAIRVTCIGSCGVSNKANDTAWVVEEGYFNSSLSLADKGSLPAGEHSFPFQFLLPATAPTSFEGPFGKIVHQVRAAIHTPRFSKDHKCSLVFYILSPLNLNSIPDIEQPNVASATKKFSYKLVKTGSVVLTASTDLRGYVVGQALQLHADVENQSGKDTSPVVASLLQKVSYKAKRWIHDVRTIAEVEGAGVKAWRRAQWHEQILVPALPQSALPGCSLIHIDYYLQVSLKAPEATVTLPVFIGNIAVNHAPVSPRPGLGLPPGAPPLVVPSAPPQEEAEAEAAAGGPHFLDPVFLSTKSHSQRQPLLATLSSVPGAPEPCPQDGSPASHPLHPPLCISTGATVPYFAEGSGGPVPTTSTLILPPEYSSWGYPYEAPPSYEQSCGGVEPSLTPES | soluble
MPAKVLINGYGSIGKRVADAVSMQDDMEVIGVTKTKPDFEARLAVEKGYKLFVAIPDNERVKLFEDAGIPVEGTILDIIEDADIVVDGAPKKIGKQNLENIYKPHKVKAILQGGEKAKDVEDNFNALWSYNRCYGKDYVRVVSCNTTGLCRILYAINSIADIKKARIVLVRRAADPNDDKTGPVNAITPNPVTVPSHHGPDVVSVVPEFEGKILTSAVIVPTTLMHMHTLMVEVDGDVSRDDILEAIKKTPRIITVRAEDGFSSTAKIIEYGRDLGRLRYDINELVVWEESINVLENEIFLMQAVHQESIVIPENIDCIRAMLQMEEDNFKSIEKTNKAMGIQ | soluble
MTLLTVKHLTITDTWTDQPLVSDVNFTLTKGETLGVIGESGSGKSITCKSIIGLNPERLGVTGEIIFDGTSMLSLSESQLKKYRGKDIAMVMQQGSRAFDPSTTVGKQMFETMKVHTSMSTQEIEKTLIEYMDYLSLKDPKRILKSYPYMLSGGMLQRLMIALALALKPKLIIADEPTTALDTITQYDVLEAFIDIKKHFDCAMIFISHDLTVINKIADRVVVMKNGQLIEQGTRESVLHHPEHVYTKYLLSTKKKINDHFKHVMRGDVHD | not soluble
MGSDKIHHHHHHMSAVLYSNLKFLRFKDQLDALAGGTVAPPVHIRIKPTNRCNHKCWYCAYRTDDLKLGEDMDESDLIPEAKMMEIADDIVAMGVKAVTFSGGGEPLLYKPLPEVIDRLAAGGVRVATLTNGANLKGKVAQSLARHATWVRVSVDAWDDDSYVSSRGAKAGEFTKLLENMKAFVETGTKCVLGVSFIAGKDNYHRLSEVCARFKAIGVNHVKLSAAVVGNSVDENNRYHREFAEGARAEIERAKALSGDGFSVLDHFHEMESRFEKDYHRCPFLQFLTVIGADQTVYTCQDKAYTKEGTLGSIRGRSFRDYWFSEENRQRMAEFDPSRLCRHHCVSHSKNQAIMQYLSIDSEHGLFV | not soluble
METKAKNKTQLAYEYILSRIENGVYGPGYRVVIDQIARELGLSSIPVREAIRQLEAEGLVEFKPYTGAVVSNINEKEYIETLSVLAVLEGYATALGSANLTKEAINELERLNERMERALEELELERFSELNYEFHSLIYAHCGNAYLEEQIKQIWQRMKRIRVYGFTFVPQRAKASIEEHREIIRLLHEQAPPHEIEQYVRQHKINTAEAFKRRR | not soluble
MTEAAKKSTKKPVDDGNFDKEIISRWPDLELSQTRFMLNHPEVDSSVKEAKLEKLQETIKEFDMAPFYELVCADFKIVVDATQLAAMKAANQKKIDEITAEVEDAEKNLGESEVRQGLLRKFEYYCQIGDKDNALKAYTATYEKTVGMGYRIDVVFAMIRVGLFFLDHHLINKFITKAKELMEQGGDWERKNRLRSYEALYRMSVRDFAGAADLFLEAVPTFGSYELMTYENLILYTVITTTFALDRPDLRTKVIRCNEVQEQLTGGGLNGTLIPVREYLESYYDCHYDRFFIQLAALESERFKFDRYLSPHFNYYSRGMRHRAYEQFLTPYKTVRIDMMAKDFGVSRAFIDRELHRLIATGQLQCRIDAVNGVIEVNHRDSKNHLYKAVIKDGDILLNRIQKLARVINA | not soluble
GMEPTRKRKSAGGKPKGKGGWGDRKSGGWRGDHKPSKEGFGGKTRGEGFKKEGFKRDGFKKTGEGFKGKRKAGDSFAGKGERRYKDR | not soluble
YLGEVYTAKTDDGVKIKLLRYHPPGEGVNDGVQPVVLFSGLLCNMNEYLTHTPPELKDLYKTQLPSELADWAVGDERIQQDPMLYYSLAYYLWKQGYDVWLVNYRGTGVGELKSGVGSARTSLDTWAIYDTKAAITKVYEVTGKHPVIGGHSTGGLVSYVYLQGAKFKWTFACLFKKPWCKKVVSDDDLVRERNGLTEGEETVVGVIALDPAMIPPLPKLTDLKLMWLLLDTPLYIDIRGIMNLIAKNDRLWCATTHTIDEVFELIFEMNEEYGQYSELIRDLTFTNPGNMNDELNDFLVRYVADSLYTPTLAHYNDFGTHRTAREYFENGGRSYLIVPPEPNPGKDGYYYYILNMQKVRVPFITLLSEYDALVEAEQIIRDLMEAKTPHQFDEYYIIEGTAHLDLPFGLKAPSEVFPKVGAWLEK | not soluble
MQVCRQWVTLSLYNNGKWPKMKYQQLENLECGWKWQYLINKWKDGEPVTRYIDKSEIEAAVQKLRAIEHEPTHVLSWIEEHMSSELDNKLKQAIRAKRKRHFNAEQIHTRKKSIDLDYRVWEKLSLKANELGCTLSDAIEYLLSEASRSEKASKTVNSLKEDLSRLLAE | not soluble
MGSDKIHHHHHHMMDARRNGLVLLALLLLTQTTISAQTDSMGKDVPIDSVSVATSDSLQTKRGFFKKFLDYFNDANKEKKNKKFDFSVIGGPHYSSDTKFGLGLVAAGLYRTDRNDSILPPSNVSLYGDVSTVGFYLLGVRGNHLFPQEKYRLNYNLYFYSFPSLYWGRGYDNGANSDNESDYKRFQAQVKVDFMFRVAKSFYIGPMAVFDYIDGRDFEKPELWEGMSARTTNTSLGLSLLYDSRDFLTNAYQGYYLRIDQRFSPAFLGNKYAFSSTELTTSYYHPVWKGGVLAGQFHTLLNYGNPPWGLMATLGSSYSMRGYYEGRYRDKCAMDAQIELRQHIWKRNGVAVWAGAGTVFPRFSDFTPKHILPNYGFGYRWEFKKRVNVRLDLGFGKHQTGFIFNINEAF | not soluble
QSAYSRIEAESYSNQSGIQTETCSEGGEDVGFVENGDYTVYNNVDFGDGVGGFQARVASATSGGNIEIRLDSSTGTLIGTCPVAGTGDWQTYTDAKCTVSGVTGKHDVYLVFKGDSGYLFNLNWFTFSE | soluble
MCGRIAQKSAPEDYVEILWPNARLIFDDVAGPRYNIPPGTKPLTMHRLAGGFEVDRQWWTWRPSGSKYAMNCARLDKILGNKWPWKLLTARGRILVPADGWYEWKALDSSPKPAKQPYFIHGAGPLLFAGLSAWRPGAEMDEAHGFAIVTDDAQGGMVDVHDRRPVALPPELAREWVDPATPVARAMEILRAGLPETAFSWHPVRQEVGSSKYQLPDAIDPILEHHHHHH | soluble
MSLQDDIKEKKKLVVAVSPDYAPFEFKALVNGKDTVVGADIDLAKAIAKELGVKLELSSMSFDNVLSSLKTGKADIAISGLSYTKERAQAYDFSEAYYKTENAILIKKSDLNKYTMISSFNNKTKVAVQKGTIEEGLAKNQLKQSNITSLTSMGEAVNELKSGQVDAIDLEKPVAEGYVSQNSDLVLAKVALKTGEGDAKAVALPKDSGQLVKTVNKVIKKLKKEDKYKQFISDAVKLTGQQVDEGHHHHHH | soluble
MNRMKTKQIDRHLAKFAYSEEFVGDTKRSTAAYTSVREDASIGSTHKLPLEVEEFGKMSNTVILGCGLSGMLTALSFAQKGIKTTIFESKSVKSPEFFKDIRTTALTPHSKNFLFSIDIWEELEKFVAEMQDIYVVDNQASEILDLRNDADAVLGYVVKNSDFKKMLLSKITNNPLITLIDNNQYQEVISHNDYSIIKFDDNQIKCNLLIICDGANSKVRSHYFANEIEKPYQTALTFNIKHEKPHENCAMEHFLPFGPFALLPLKDQYASSVIWSTSSDQAALIVNLPVEEVRFLTQRNAGNSLGKITIDSEISSFPLKARIANRYFHNRIVLIADTAHTVHPLAGQGLNQGIKDIEILSMIVSNNGPLQEYQKLRQEDNFIMYKLTDELNNIFSNHSKNLRCLRQIGFKVINNFKPVKNLITSYAMGKR | not soluble
MSDGQYGPISAGIIRSITDKSYERRKAAALDVEKLVRDLFNNNQLSQLDKCLSVLGELINSGNSNQRKGGLIGMAAASIALGNKNAPPYTAKLVEPIIPCFHDADLQIRYYACESLYNIAKICKTSVLAHFEDIFDVLWRVTADSDQNVRGGAELLNRLITEIVLSEQEFDIAILMSLIRDRIYTQTSSNRRFILEWLNTIDSAPFFSFCNYISEISDGLFKMLGEQAPAVRDLCETVLGNFLTAIRSKPESLSLEDRIQMINVLVVHTHENEPFLARKLSLIWLEEFVKLYKTDLLVMLSTCLVGILPSIVETELKADAVNRLLMALVGEAKLEQDILDKTIEVLLKYIKYDVVETRVTVLNWIRHLHSSMPGQLFVHMHQIFPVLLNTLSDTSDEVLLLDLFLISNICQSESAPDQVDVSTFGLNETELKQVSHISPFLIKFVLSLLEMFRTEPTLLRERGVLIIRQLCLLLEPAHIYRVICVLLERESKHNFAQEMVSTLHGVLLTATELFILRDELRALSNESSRSLFECIFRVWSNRPIALLGLCLLSQHYQQAADIALLLSQVDITVDVLLEIDKLVNLVESPVLAYVRMDLLSSIHRPPLCTVLSALLMLLPQSEAFVTLHKRLQAVPALVSIDNSPYAPKVPPCRIDFPPLMLHFKAALARRQTEVRSRHRDLLSGVVTQMKNVKI | not soluble
